In IntAct's records for PubMed 16319076:

B1: Profilin-2 (Mus musculus), Q9JJV2-1 (parent)
chain: MAGWQSYVDNLMCDGCCQEAAIVGYCDAKYVWAATAGGVFQSITPVEIDMIVGKDREGFFTNGLTLGAKKCSVIRDSLYVDGDCTMDIRTKSQGGEPTYNVAVGRAGRVLVFVMGKEGVHGGGLNKKAYSMAKYLRDSGF
partner: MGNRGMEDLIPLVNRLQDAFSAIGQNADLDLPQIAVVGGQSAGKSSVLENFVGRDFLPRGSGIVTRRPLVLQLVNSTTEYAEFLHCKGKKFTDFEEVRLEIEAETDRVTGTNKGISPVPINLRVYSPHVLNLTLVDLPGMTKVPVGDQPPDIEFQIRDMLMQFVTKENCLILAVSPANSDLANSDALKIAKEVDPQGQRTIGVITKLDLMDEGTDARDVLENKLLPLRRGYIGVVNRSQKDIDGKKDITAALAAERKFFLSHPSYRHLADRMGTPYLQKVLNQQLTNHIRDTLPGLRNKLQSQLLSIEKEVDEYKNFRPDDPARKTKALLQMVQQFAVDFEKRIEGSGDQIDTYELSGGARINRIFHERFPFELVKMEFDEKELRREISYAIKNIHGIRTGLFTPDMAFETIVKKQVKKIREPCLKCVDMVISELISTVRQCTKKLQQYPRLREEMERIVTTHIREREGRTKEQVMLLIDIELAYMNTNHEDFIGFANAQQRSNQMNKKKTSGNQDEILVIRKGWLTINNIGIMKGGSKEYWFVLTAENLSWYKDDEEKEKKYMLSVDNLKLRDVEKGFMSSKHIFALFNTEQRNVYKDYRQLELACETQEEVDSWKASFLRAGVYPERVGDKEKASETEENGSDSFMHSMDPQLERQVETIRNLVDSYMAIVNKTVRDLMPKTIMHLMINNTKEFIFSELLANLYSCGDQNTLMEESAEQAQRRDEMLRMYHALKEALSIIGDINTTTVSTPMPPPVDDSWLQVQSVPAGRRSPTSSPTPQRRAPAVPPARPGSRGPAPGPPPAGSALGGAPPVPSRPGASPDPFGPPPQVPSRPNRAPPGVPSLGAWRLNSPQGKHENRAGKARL

Variants of: B1
Conditions: with dyn1_mouse Dnm1, P39053

effect of a mutation on the interaction	Variant
decreasing interaction	MAGWQSYVDNLMCDGCCQEAAIVGYCDAKYVWAATAGGVFQSITPVEIDMIVGKDREGFFTNGLTLGAKKCSVIRDSLYVDGDCTMDIRTKSQGGEPTYNVAVGRAGRVLVFVMGKEGVHGGGLNKKAYSMAKYLRDDGF
